The labels stand for the following.
B1: histone H4 1-19 peptide, K5,8,12,16Ac (peptide, UniProt P62805 2-20, looked up)
peptide: SGRGKGGKGLGKGGAKRHR
modifications: acetyl-lysine at K5, K8, K12 and K16
notes: histone H4 tail peptide, residues 1-19, on the array; also called H4 1-19 K^5,8,12,16Ac; H4K^5,8,12,16Ac; source: bought: Active Motif MODified Histone Peptide Array (peptide on the array)
B2: human O-GlcNAcase, long isoform (OGA-L), full length (enzyme, UniProt O60502 1-916, looked up)
chain: MVQKESQATLEERESELSSNPAASAGASLEPPAAPAPGEDNPAGAGGAAVAGAAGGARRFLCGVVEGFYGRPWVMEQRKELFRRLQKWELNTYLYAPKDDYKHRMFWREMYSVEEAEQLMTLISAAREYEIEFIYAISPGLDITFSNPKEVSTLKRKLDQVSQFGCRSFALLFDDIDHNMCAADKEVFSSFAHAQVSITNEIYQYLGEPETFLFCPTEYCGTFCYPNVSQSPYLRTVGEKLLPGIEVLWTGPKVVSKEIPVESIEEVSKIIKRAPVIWDNIHANDYDQKRLFLGPYKGRSTELIPRLKGVLTNPNCEFEANYVAIHTLATWYKSNMNGVRKDVVMTDSEDSTVSIQIKLENEGSDEDIETDVLYSPQMALKLALTEWLQEFGVPHQYSSRQVAHSGAKASVVDGTPLVAAPSLNATTVVTTVYQEPIMSQGAALSGEPTTLTKEEEKKQPDEEPMDMVVEKQEETDHKNDNQILSEIVEAKMAEELKPMDTDKESIAESKSPEMSMQEDCISDIAPMQTDEQTNKEQFVPGPNEKPLYTAEPVTLEDLQLLADLFYLPYEHGPKGAQMLREFQWLRANSSVVSVNCKGKDSEKIEEWRSRAAKFEEMCGLVMGMFTRLSNCANRTILYDMYSYVWDIKSIMSMVKSFVQWLGCRSHSSAQFLIGDQEPWAFRGGLAGEFQRLLPIDGANDLFFQPPPLTPTSKVYTIRPYFPKDEASVYKICREMYDDGVGLPFQSQPDLIGDKLVGGLLSLSLDYCFVLEDEDGICGYALGTVDVTPFIKKCKISWIPFMQEKYTKPNGDKELSEAEKIMLSFHEEQEVLPETFLANFPSLIKMDIHKKVTDPSVAKSMMACLLSSLKANGSRGAFCEVRPDDKRILEFYSKLGCFEIAKMEGFPKDVVILGRSL
notes: human O-GlcNAcase (OGA), long isoform OGA-L, 103 kDa, full length, codon optimized; also called hOGA; full-length recombinant OGA; source: E. coli TOP10 (pBAD), purified (Talon resin for the arrays; HisTrap and size-exclusion chromatography for cryo-EM); not shown: His6, N-terminal, kept
B3: histone H4 1-19 peptide, K8,12,16Ac (peptide, UniProt P62805 2-20, looked up)
peptide: SGRGKGGKGLGKGGAKRHR
modifications: acetyl-lysine at K8, K12 and K16
notes: histone H4 tail peptide, residues 1-19, on the array; also called H4 1-19 K^8,12,16Ac; H4K^8,12,16Ac; source: bought: Active Motif MODified Histone Peptide Array (peptide on the array)

In series [1] the target is B2. Briefly: peptide or protein array; Active Motif MODified histone peptide array (384 modified histone peptides in duplicate, immobilised); 100 nM protein in 20 mM Tris pH 7.5, 1 mM DTT, 0.5 mg/mL BSA, RT 1 h; detected with anti-His6 antibody; 3 or more arrays. Conditions: both partners purified.
Series [2] concerns the molecule itself. The series is described as follows: cryo-EM structure; apo full-length OGA-L, about 0.5 ug/ul in 20 mM Tris, 150 mM NaCl; Titan Krios 300 kV.
The target in series [3] is recombinant mononucleosome with the H3K36Me3 modification. Briefly: pull-down; 500 nM biotinylated mononucleosomes with 0, 25, 50, 100, 250 and 500 nM full-length OGA in OGA assay buffer, overnight 4 °C; captured on streptavidin magnetic beads; bound OGA-L quantified by immunoblot (anti-MGEA5); saturation plot and Scatchard analysis. (Immunoblotting shows a protein as a band on a membrane.)

For series [4], the target named is recombinant mononucleosome with the H4K5,8,12,16Ac modification (UniProt P62805). Described as above.

Take B1: the binding result in series [1] was “binds”.

By Kd is commonly meant the free concentration of one partner at which half of the binding sites on the other are occupied at equilibrium, for simple one-to-one binding. Consider B2, for which, in series [2], the binding result is recorded as “binds”. The Kd was determined as 290 nM in series [3] and 220 nM in series [4].

For B3, in series [1], the binding result was “binds”.

These data come from article PMC12775002, “Human O-GlcNAcase catalytic-stalk dimer anchors flexible histone binding domains” (Communications Chemistry, 2025).
